Reference: PMC6588657 (2018)

Biological target: Full-length Drosophila ATL (Drosophila) (UniProt Q9VC57)
Sequence (Q9VC57 whole entry): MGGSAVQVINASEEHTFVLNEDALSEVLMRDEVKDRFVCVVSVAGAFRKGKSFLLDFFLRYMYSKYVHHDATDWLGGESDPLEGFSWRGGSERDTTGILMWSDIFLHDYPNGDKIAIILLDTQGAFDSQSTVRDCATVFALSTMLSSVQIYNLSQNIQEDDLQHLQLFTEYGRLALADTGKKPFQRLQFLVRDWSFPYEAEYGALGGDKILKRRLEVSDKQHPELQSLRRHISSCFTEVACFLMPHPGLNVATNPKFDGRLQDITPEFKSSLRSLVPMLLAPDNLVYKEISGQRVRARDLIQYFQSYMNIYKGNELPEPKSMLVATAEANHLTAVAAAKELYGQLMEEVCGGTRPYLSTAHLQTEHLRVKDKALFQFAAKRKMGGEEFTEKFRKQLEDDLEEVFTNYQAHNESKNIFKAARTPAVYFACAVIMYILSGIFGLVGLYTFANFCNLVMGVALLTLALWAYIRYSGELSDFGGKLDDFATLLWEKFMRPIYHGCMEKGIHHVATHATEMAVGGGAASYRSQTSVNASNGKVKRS

dmLnp-NT-Flag-GST (domain or fragment)
GTP-dependent fusion of dmATL donor and acceptor vesicles (NBD dequenching), dmLnp-NT at 5 times the concentration of dmATL, against samples without Lnp: 50%
